Assay results from US20220289848A1 (published 2022).

biological target: CD47 expressed on CHO-K1 cells (UniProt Q08722 19-323); assay: FACS

| Binder | EC50 [nM] |
| --- | --- |
| PDL1a-E-HN (bispecific antibody) heavy: not shown light: EIVLTQSPATLSLSPGERATLSCRASENVGTYISWYQQKPGQAPRLLIYGASNRYTGIPARFSGSGSGTDFTLTISSLEPEDFAVYYCGESYGHLYTFGGGTKVEIKRTVAAPSVFIFPPSDEQLKSGTASVVCLLNNFYPREAKVQWKVDNALQSGNSQESVTEQDSKDSTYSLSSTLTLSKADYEKHKVYACEVTHQGLSSPVTKSFNRGEC | 0.854 |
| PDL1b-E-HC (bispecific antibody) heavy: not shown light: EIVLTQSPATLSLSPGERATLSCRASENVGTYISWYQQKPGQAPRLLIYGASNRYTGIPARFSGSGSGTDFTLTISSLEPEDFAVYYCGESYGHLYTFGGGTKVEIKRTVAAPSVFIFPPSDEQLKSGTASVVCLLNNFYPREAKVQWKVDNALQSGNSQESVTEQDSKDSTYSLSSTLTLSKADYEKHKVYACEVTHQGLSSPVTKSFNRGEC | 0.328 |
| PDL1a-G15-HN (bispecific antibody) heavy: not shown light: EIVLTQSPATLSLSPGERATLSCRASENVGTYISWYQQKPGQAPRLLIYGASNRYTGIPARFSGSGSGTDFTLTISSLEPEDFAVYYCGESYGHLYTFGGGTKVEIKRTVAAPSVFIFPPSDEQLKSGTASVVCLLNNFYPREAKVQWKVDNALQSGNSQESVTEQDSKDSTYSLSSTLTLSKADYEKHKVYACEVTHQGLSSPVTKSFNRGEC | 0.664 |
| PDL1a-G15-HC (bispecific antibody) heavy: not shown light: EIVLTQSPATLSLSPGERATLSCRASENVGTYISWYQQKPGQAPRLLIYGASNRYTGIPARFSGSGSGTDFTLTISSLEPEDFAVYYCGESYGHLYTFGGGTKVEIKRTVAAPSVFIFPPSDEQLKSGTASVVCLLNNFYPREAKVQWKVDNALQSGNSQESVTEQDSKDSTYSLSSTLTLSKADYEKHKVYACEVTHQGLSSPVTKSFNRGEC | 0.247 |
| PDL1a-E-HC (bispecific antibody) heavy: not shown light: EIVLTQSPATLSLSPGERATLSCRASENVGTYISWYQQKPGQAPRLLIYGASNRYTGIPARFSGSGSGTDFTLTISSLEPEDFAVYYCGESYGHLYTFGGGTKVEIKRTVAAPSVFIFPPSDEQLKSGTASVVCLLNNFYPREAKVQWKVDNALQSGNSQESVTEQDSKDSTYSLSSTLTLSKADYEKHKVYACEVTHQGLSSPVTKSFNRGEC | 0.255 |

Further lines, results first:

| EC50 [nM] | Binder |
| --- | --- |
| 0.325 | anti-CD47 monoclonal antibody (mAb) (antibody, V domains shown) VH: EVQLVQSGAEVKKPGSSVKVSCKASGYSFTHHWIHWVRQAPGQGLEWMGMIDASDSETRLSQKFKDRVTITADKSTSTAYMELSSLRSEDTAVYYCARLGRYYFDYWGQGTTVTVSS VL: EIVLTQSPATLSLSPGERATLSCRASENVGTYISWYQQKPGQAPRLLIYGASNRYTGIPARFSGSGSGTDFTLTISSLEPEDFAVYYCGESYGHLYTFGGGTKVEIKR |
| 0.287 | PDL1c-E-HC (bispecific antibody) heavy: not shown light: EIVLTQSPATLSLSPGERATLSCRASENVGTYISWYQQKPGQAPRLLIYGASNRYTGIPARFSGSGSGTDFTLTISSLEPEDFAVYYCGESYGHLYTFGGGTKVEIKRTVAAPSVFIFPPSDEQLKSGTASVVCLLNNFYPREAKVQWKVDNALQSGNSQESVTEQDSKDSTYSLSSTLTLSKADYEKHKVYACEVTHQGLSSPVTKSFNRGEC |
| 0.521 | PDL1b-E-HN (bispecific antibody) heavy: not shown light: EIVLTQSPATLSLSPGERATLSCRASENVGTYISWYQQKPGQAPRLLIYGASNRYTGIPARFSGSGSGTDFTLTISSLEPEDFAVYYCGESYGHLYTFGGGTKVEIKRTVAAPSVFIFPPSDEQLKSGTASVVCLLNNFYPREAKVQWKVDNALQSGNSQESVTEQDSKDSTYSLSSTLTLSKADYEKHKVYACEVTHQGLSSPVTKSFNRGEC |
| 0.7 | PDL1c-E-HN (bispecific antibody) heavy: not shown light: EIVLTQSPATLSLSPGERATLSCRASENVGTYISWYQQKPGQAPRLLIYGASNRYTGIPARFSGSGSGTDFTLTISSLEPEDFAVYYCGESYGHLYTFGGGTKVEIKRTVAAPSVFIFPPSDEQLKSGTASVVCLLNNFYPREAKVQWKVDNALQSGNSQESVTEQDSKDSTYSLSSTLTLSKADYEKHKVYACEVTHQGLSSPVTKSFNRGEC |

biological target: PD-L1 expressed on CHO-K1 cells (UniProt Q9NZQ7 19-290); assay: FACS binding, CHO-K1 cells expressing PD-L1
Sequence (Q9NZQ7 19-290): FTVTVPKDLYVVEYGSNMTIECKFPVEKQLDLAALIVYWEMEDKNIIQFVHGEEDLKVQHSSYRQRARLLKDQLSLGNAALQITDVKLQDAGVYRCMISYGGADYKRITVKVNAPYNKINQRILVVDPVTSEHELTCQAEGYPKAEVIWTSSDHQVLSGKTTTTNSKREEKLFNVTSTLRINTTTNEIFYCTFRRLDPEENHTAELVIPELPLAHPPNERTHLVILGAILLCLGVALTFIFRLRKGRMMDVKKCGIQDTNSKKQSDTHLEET

| Binder | EC50 [nM] |
| --- | --- |
| PDL1a-G15-LN (bispecific antibody) heavy: not shown light: EVQLVESGGGLVQPGGSLRLSCAASGRTFVTYGMGWFRQAPGKGREFVSAISWSGSMTSYGDSVKGRFTISRDNAKNTLYLQMNSLRPEDTAVYYCAAALGAVVYTTREPYTYWGQGTLVTVSSGGGGSGGGGSGGGGSEIVLTQSPATLSLSPGERATLSCRASENVGTYISWYQQKPGQAPRLLIYGASNRYTGIPARFSGSGSGTDFTLTISSLEPEDFAVYYCGESYGHLYTFGGGTKVEIKRTVAAPSVFIFPPSDEQLKSGTASVVCLLNNFYPREAKVQWKVDNALQSGNSQESVTEQDSKDSTYSLSSTLTLSKADYEKHKVYACEVTHQGLSSPVTKSFNRGEC | 1.11 |
| PDL1a-E-HN (bispecific antibody) heavy: not shown light: EIVLTQSPATLSLSPGERATLSCRASENVGTYISWYQQKPGQAPRLLIYGASNRYTGIPARFSGSGSGTDFTLTISSLEPEDFAVYYCGESYGHLYTFGGGTKVEIKRTVAAPSVFIFPPSDEQLKSGTASVVCLLNNFYPREAKVQWKVDNALQSGNSQESVTEQDSKDSTYSLSSTLTLSKADYEKHKVYACEVTHQGLSSPVTKSFNRGEC | 0.759 |
| PDL1a-E-LN (bispecific antibody) heavy: not shown light: EVQLVESGGGLVQPGGSLRLSCAASGRTFVTYGMGWFRQAPGKGREFVSAISWSGSMTSYGDSVKGRFTISRDNAKNTLYLQMNSLRPEDTAVYYCAAALGAVVYTTREPYTYWGQGTLVTVSSEPKSSDKTHTSPPSPEIVLTQSPATLSLSPGERATLSCRASENVGTYISWYQQKPGQAPRLLIYGASNRYTGIPARFSGSGSGTDFTLTISSLEPEDFAVYYCGESYGHLYTFGGGTKVEIKRTVAAPSVFIFPPSDEQLKSGTASVVCLLNNFYPREAKVQWKVDNALQSGNSQESVTEQDSKDSTYSLSSTLTLSKADYEKHKVYACEVTHQGLSSPVTKSFNRGEC | 0.351 |

More lines, now with the values ahead:

| EC50 [nM] | Binder |
| --- | --- |
| 0.718 | PDL1c-E-LN (bispecific antibody) heavy: not shown light: EVQLVESGGGLVQPGGSLRLSCAASGRTFITYAIGWFRQAPGKGREFVSAISWSGSMTSYADSVKGRFTISRDNAKNTLYLQMNSLRPEDTAVYYCAAHRGAIAPIAQSVYTNWGQGTLVTVSSEPKSSDKTHTSPPSPEIVLTQSPATLSLSPGERATLSCRASENVGTYISWYQQKPGQAPRLLIYGASNRYTGIPARFSGSGSGTDFTLTISSLEPEDFAVYYCGESYGHLYTFGGGTKVEIKRTVAAPSVFIFPPSDEQLKSGTASVVCLLNNFYPREAKVQWKVDNALQSGNSQESVTEQDSKDSTYSLSSTLTLSKADYEKHKVYACEVTHQGLSSPVTKSFNRGEC |
| 1.48 | PDL1c-E-HN (bispecific antibody) heavy: not shown light: EIVLTQSPATLSLSPGERATLSCRASENVGTYISWYQQKPGQAPRLLIYGASNRYTGIPARFSGSGSGTDFTLTISSLEPEDFAVYYCGESYGHLYTFGGGTKVEIKRTVAAPSVFIFPPSDEQLKSGTASVVCLLNNFYPREAKVQWKVDNALQSGNSQESVTEQDSKDSTYSLSSTLTLSKADYEKHKVYACEVTHQGLSSPVTKSFNRGEC |
| 1.18 | PDL1b-E-LN (bispecific antibody) heavy: not shown light: EVQLVESGGGLVQPGGSLRLSCAASGRTFVTYGMGWFRQAPGKGREFVSAISWSGSSTSYGDSVKGRFTISRDNAKNTLYLQMNSLRPEDTAVYYCAAALGAVVYTTREPYTYWGQGTLVTVSSEPKSSDKTHTSPPSPEIVLTQSPATLSLSPGERATLSCRASENVGTYISWYQQKPGQAPRLLIYGASNRYTGIPARFSGSGSGTDFTLTISSLEPEDFAVYYCGESYGHLYTFGGGTKVEIKRTVAAPSVFIFPPSDEQLKSGTASVVCLLNNFYPREAKVQWKVDNALQSGNSQESVTEQDSKDSTYSLSSTLTLSKADYEKHKVYACEVTHQGLSSPVTKSFNRGEC |
